In general, Kd refers to the free concentration of one partner at which half of the binding sites on the other are occupied at equilibrium, for simple one-to-one binding. Low values mean a tighter complex, high ones a looser complex.

These results are taken from article PMC6954902 (Protein & Cell, 2019).

For this test, the target named is T1, MtEccCb1-ATPase3 (ATPase3 domain of EccCb1 from Mycobacterium tuberculosis, residues 315-591) (Mycobacterium tuberculosis H37Rv, UniProt P9WNB1 315-591).
T1 sequence: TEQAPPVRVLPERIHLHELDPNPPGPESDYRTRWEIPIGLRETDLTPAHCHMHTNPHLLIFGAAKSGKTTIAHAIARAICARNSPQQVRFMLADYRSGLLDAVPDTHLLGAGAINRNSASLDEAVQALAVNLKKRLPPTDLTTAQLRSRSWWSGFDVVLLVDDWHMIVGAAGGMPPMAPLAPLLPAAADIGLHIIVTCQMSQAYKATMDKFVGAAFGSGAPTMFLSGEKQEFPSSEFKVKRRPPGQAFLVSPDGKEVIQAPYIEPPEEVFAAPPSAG
As to the kind of experiment: ITC. The following applies: both partners purified.

B1: wild-type peptide corresponding to the C-terminal 16-residues of MtEsxB (peptide)
peptide: RADEEQQQALSSQMGF
notes: source: synthetic peptide
Molecule B1 yielded a Kd of 55 µM.

B2: MtEsxB (culture filtrate protein CFP-10 of Mycobacterium tuberculosis) (natural protein)
chain: MAEMKTDAATLAQEAGNFERISGDLKTQIDQVESTAGSLQGQWRGAAGTAAQAAVVRFQEAANKQKQELDEISTNIRQAGVQYSRADEEQQQALSSQMGF
B2 showed a Kd of 34 µM.
